Numbering of substitutions follows the chain as printed. Numbers in names are those of the source.
B1: eSrtA (protein)
chain: QAKPQIPKDKSKVAGYIEIPDADIKEPVYPGPATREQLNRGVSFAEENESLDDQNISIAGHTFIDRPNYQFTNLKAAKKGSMVYFKVGNETRKYKMTSIRNVKPTAVEVLDEQKGKDKQLTLITCDDYNEETGVWETRKIFVATEVK
B2: eSrtA(4S-9): P94R, N98D, S102C, A104V, A118T, F122A, K134R, F144L, D160N, D165A, I182V, E189F, K190E, K196T (protein)
chain: B1 chain with N39D, S43C, A45V, A59T, F63A, K75R, F85L, I123V, E130F
B3: eSrtA(2A-9): P94R, S102C, A104H, E105D, K138P, K152I, N160K, K162H, T164N, D165A, K173E, I182V, K190E, T196S (protein)
chain: QAKPQIPKDKSKVAGYIEIPDADIKEPVYPGPATREQLNRGVCFHDENESLDDQNISIAGHTFIDRPNYQFTNLKAAKPGSMVYFKVGNETRIYKMTSIRKVHPNAVEVLDEQEGKDKQLTLVTCDDYNEETGVWESRKIFVATEVK

How the values were obtained:
[1] = tested on: SUMO-TEV site-FGF1-LPESG-His6; test: FGF dual labeling / circularization of GGG-FGF-LPESG; assay type: biochemical; conditions: 0.2 eq enzyme, 10 or 100 μM Btn-LAETG, 4 hours
Description: SUMO-TEV site-FGF1-LPESG-His6 (SEQ ID NO: 27), 0.5 eq TEV protease, and either 0.2 eq eSrtA or eSrtA(2A-9) were incubated in the presence of 10 or 100 μM Btn-LAETG (SEQ ID NO: 5) for 4 hours. The protein contains a GGG near its N-terminus masked by a TEV protease cleavage site, and a LPESG (SEQ ID NO: 3) near its C-terminus to serve as a substrate for downstream conjugation. In situ digestion of the TEV cleavage site exposes an N-terminal GGG, which in theory can serve as the substrate for subsequent conjugation with an LAETG-containing peptide (SEQ ID NO: 5). […] His6: SEQ ID NO: 6.
SUMO-TEV-FGF-LPESG-His6 (SEQ ID NO: 27) conjugates were treated with 0.2 eq eSrtA(4S-9), 1 mM GGG-PEG and 10 mM CaCl2 in TBS and incubated at room temperature at 500 μL final volumes. These samples were then quenched by the addition of 100 μM H2N-LPESGG (SEQ ID NO: 38) peptide and 100 μL of pre-equilibrated Ni-NTA resin slurry in TBS, then incubated on ice for 15 minutes. This mixture was then passed through a 0.2 μm spin filter, diluted 1:10 into PBS+10 μM H2N-LPESGG (SEQ ID NO: 38) peptide, and concentrated against a 10 kDa MWCO spin concentrator to a final volume of 400 μL. This process was repeated five times to afford the crude SUMO-TEV-FGF-LPESGGG-PEG (SEQ ID NO: 39) conjugates. […] Protein concentrations were determined by BCA assay. […]

[2] = Differential scanning fluorimetry for thermal melting curves; assay type: physicochemical
Description: FIGS. 25A-C show thermal melting curves for eSrtA variants. Each protein was freshly expressed and purified, then diluted to 40 μM in 100 mM Tris pH 7.5, 500 mM NaCl. Differential scanning fluorimetry was performed using the Life Technologies Protein Thermal Shift™ Dye kit according to manufacturers' instructions. Thermal scanning was performed on Biorad CFX96-Real Time PCR (25° C. to 99° C., 0.2° C./2s increments). To calculate Tm, fluorescence intensity was fit to the Boltzmann equation using Microsoft Excel using the Solver add-in. Melting curves were plotted with best-fit fluorescence intensities that were normalized to maximum fluorescence intensity. Tm values are shown with their standard deviations as determined from three technical replicates.
To determine thermal stability of eSrtA, eSrtA(2A-9), eSrtA(4S-9), and variants thereof, each protein was freshly expressed and purified, then diluted to 40 μM in 100 mM Tris pH 7.5, 500 mM NaCl. Differential scanning fluorimetry was performed using the Life Technologies Protein Thermal Shift™ Dye kit according to manufacturers' instructions. […] To calculate Tm, fluorescence intensity was fit to the Boltzmann equation using Microsoft Excel using the Solver add-in. Melting curves were plotted with best-fit fluorescence intensities that were normalized to maximum fluorescence intensity.

Molecule | circularization of GGG-FGF-LPESG [1] | ΔTm compared to eSrtA [2] [°C]
B1 | resulting in circularization | –
B2 | – | ~4.4
B3 | does not generate detectable levels of circularized GGG-FGF protein | ~4.4
